Laboratory results as given in US20240002888A1, “RECOMBINANT MICROORGANISM COMPRISING POLYNUCLEOTIDE ENCODING TARGET PRODUCT BINDING PROTEIN FUSED TO SECRETION SIGNAL SEQUENCE, COMPOSITION COMPRISING SAME, AND METHOD FOR PRODUCING TARGET PRODUCT BY USING SAME” (KOREA RESEARCH INSTITUTE OF CHEMICAL TECHNOLOGY, priority 2020, published 2024).

Key:
Format in all cases: cell-based, Saccharomyces cerevisiae
SQ strain [1] = assay: Western blot analysis of cell lysates and culture supernatant of transformed SQ strains (anti-His tag); conditions: medium without dodecane layer
Method: FIG. 4 is a diagram showing the results of western blot analysis of the cell lysates and the culture supernatant obtained after culturing the SQ strains that were each transformed with the Suc2-tSPF, Pho5-tSPF and MFα-tSPF fusion protein genes. To confirm the extracellular secretion of the tSPF fusion protein, yeast cells were cultured in a flask ([…]) containing 50 mL minimal medium (e.g., YSC medium; 0.67% (w/v) yeast nitrogen base without amino acids (BD Difco, USA), 0.19% (w/v) yeast synthetic drop-out medium supplements without uracil (Sigma-Aldrich, USA)) supplemented with 2% (w/v) glucose while stirring at 30° C. […] To extract intracellular proteins from the cultured yeast cells in an amount corresponding to an OD600 value of 100, the cells were resuspended 1 mL of cell lysis buffer (1 mL RIPA buffer, Thermo Scientific, MA, USA) containing protease inhibitor (1× protease inhibitor cocktail, Roche Diagnostics, Mannheim, Germany). The suspension was homogenized by using a sonicator, for 6 minutes at 20% amplitude and 3 second intervals. The extracellular proteins in the supernatant of the culture medium were added to a solution in which trichloroacetic acid solution was added to 50 mL of the supernatant to account for 25%, and incubated for 30 minutes to precipitate proteins, followed by centrifugation at 4° C. for 40 minutes. The precipitated proteins were washed three times with 1 ml of cold acetone, and then resuspended in 50 μl of sterile water. The resuspended proteins were further concentrated by using 30 kDa am icon ultra centrifugal filters.
The protein samples thus prepared, i.e. the cell lysates, were mixed with 5×SDS sample buffer and separated by 10% SDS-PAGE. The proteins separated on the SDS-PAGE gel were transferred to a PVDF membrane, and blocked by incubation for one day in TBST containing 4% skim milk. The PVDF membrane was reacted with a solution containing primary antibodies at room temperature for 1 hour, and then washed with a TBST solution three times. As the primary antibody, an anti-actin antibody or an anti-His tag antibody was used. The fusion protein included a 6×His tag sequence at the C-terminus. The washed PVDF membrane was reacted again in a solution containing peroxidase-conjugated anti-IgG antibodies at room temperature for 1 hour. The PVDF membrane in which the antibody-conjugated proteins were present was visualized by using the ChemiDoc imaging system.

CEN.PK2-1D yeast cells = assay: Beta-carotene production and secretion by CEN.PK2-1D yeast cells co-transformed with p415-BC and pSEC-tSPF or pSEC-Suc2-tSPF; conditions: for Intracellular (mg/L) / Intracellular (mg/g): beta-carotene in cells; for Extracellular: beta-carotene in dodecane layer
Source text: Through the same process as described in Section (1.2) of Example 1, the S. cerevisiae wild strain CEN.PK2-1D was co-transformed with the p415-BC vector manufactured in Section (1.2) and either pSEC-tSPF or pSEC-Suc2-tSPF, to manufacture yeast cells transformed with a vector expressing tSPF fused to a signal peptide.
CEN.PK2-1D yeast cells, which were co-transformed with the p415-BC vector obtained in Section (2.2) and either pSEC-tSPF or pSEC-Suc2-tSPF and were able to overproduce beta-carotene, were cultured for 144 hours under the same conditions as described in Section (1.3) of Example 1. Then, the amount of beta-carotene in the cultured cells and outside the cells was measured. The amount of beta-carotene was measured in the same method as the methods for cell lysis and dodecane layer separation used for the measurement of the squalene concentration. Table 2 and FIG. 6 show the amount of beta-carotene produced by culturing the CEN.PK2-1D yeast cells co-transformed with the p415-BC vector and either pSEC-tSPF or pSEC-Suc2-tSPF.

SQ strain [2] = assay: Squalene production and secretion by SQ strains transformed with tSPF fused to a secretion signal sequence (HPLC of cell lysate and dodecane layer); conditions: for Intracellular (mg/L) / Intracellular (mg/g): squalene in cells; for Extracellular: squalene in dodecane layer
Method: The SQ strains transformed with the pSEC-Suc2-tSPF, pSEC-Pho5-tSPF, and pSEC-MFα-tSPF expression vectors were cultured in flask ([…]) containing 50 mL of minimal medium (e.g., YSC medium; 0.67% (w/v) yeast nitrogen base without amino acids (BD Difco, USA), 0.19% (w/v) yeast synthetic drop-out medium supplements without uracil (Sigma-Aldrich, USA)) while stirring at 250 rpm at 30° C.
After culturing for 72 hours and 144 hours, the culture was centrifuged at 4,000 rpm to be separated into cells, a culture supernatant, and a dodecane layer. Then, the concentration of squalene in the separated cells and dodecane layer was measured. To measure the squalene concentration in the cells, the cells were resuspended in 600 μL of a mixed solution containing methanol and acetone at 1:1, transferred to a tube containing lysing matrix C (glass bead, MP Biomedicals, USA), and then underwent cell lysis by using a FastPrep-24 5G homogenizer (MP Biomedicals, USA). By centrifugation at 13,000 rpm, the lysed cells and intracellular metabolites including squalene dissolved from the lysed cells were separated.
Next, the squalene concentration in the cell lysate was measured. To measure the squalene concentration in the cell lysate, the concentration was measured by using an Agilent HPLC system after filtering the cell lysate through a 0.2 μm syringe filter.
In addition, the dodecane layer separated by centrifugation was also filtered in the same way, and then the squalene concentration was measured by using an HPLC system. […] FIGS. 2A and 2B show the squalene concentrations outside the cells or in the cells, wherein the cells were produced by yeast cells including the polynucleotide encoding tSPF fused to the secretion signal sequence.

B1: Suc2-tSPF: fusion protein of Suc2 signal peptide at N-terminus of tSPF (SEQ ID NO: 23), expressed in yeast from pSEC-Suc2-tSPF (protein)
chain: MLLQAFLFLLAGFAAKISAMEFSGRVGDLSPRQKEALAKFRENVQDVLPALPNPDDYFLLRWLRARSFDLQKSEAMLRKHVEFRKQKDIDNIISWQPPEVIQQYLSGGMCGYDLDGCPVWYDIIGPLDAKGLLFSASKQDLLRTKMRECELLLQECAHQTTKLGRKVETITAIYDCEGLGLKHLWKPAVEAYGEALCMFEENYPETLKRLFVVKAPKLFPVAYNLIKPFLSEDTRKKIMVLGANWKEVLLKHISPDQVPVEYGGTMTDPDGNPKCKSKINYGGDIPRKYYVRDQVK
modifications: Suc2-tSPF
**Q.** How did the “western blot band in cell lysate” value (SQ strain [1]) turn out when B1 was run?
**A.** The value was “hardly appeared”.

**Q.** What about the “amount of extracellular beta-carotene or ratio of extracellular secretion compared to control cells” value (CEN.PK2-1D yeast cells) of the same molecule?
**A.** Its value is “significantly increased”.

**Q.** And the “extracellular secretion of beta-carotene, increase compared to the control groups containing the empty vector” value (CEN.PK2-1D yeast cells; 144 hours)?
**A.** The value was “about 23 fold”.

**Q.** What about the “Intracellular (mg/L)” value (CEN.PK2-1D yeast cells; 144 hours) of the same molecule?
**A.** Its value is 7.65 mg/L.

**Q.** And the “Intracellular (mg/g)” value (CEN.PK2-1D yeast cells; 144 hours)?
**A.** Its value is 0.82 mg/g.

**Q.** And the “Extracellular” value (CEN.PK2-1D yeast cells; 144 hours)?
**A.** The value was 1.4 mg/L.

**Q.** What about the “amount of extracellular squalene or extracellular squalene secretion ratio compared to the control cells” value (SQ strain [2]) of the same molecule?
**A.** The value was “significant increase”.

**Q.** What about the “Intracellular (mg/L)” value (SQ strain [2]; 72 hours) of the same molecule?
**A.** The value was 476.9 mg/L.

**Q.** What about the “Intracellular (mg/g)” value (SQ strain [2]; 72 hours) of the same molecule?
**A.** The value was 89.61 mg/g.

**Q.** And the “Intracellular (mg/L)” value (SQ strain [2]; 144 hours)?
**A.** Its value is 557.03 mg/L.

**Q.** What about the “Intracellular (mg/g)” value (SQ strain [2]; 144 hours) of the same molecule?
**A.** The value was 97.93 mg/g.

**Q.** What about the “Extracellular” value (SQ strain [2]; 72 hours) of the same molecule?
**A.** The value was 166.62 mg/L.

**Q.** And the “Extracellular” value (SQ strain [2]; 144 hours)?
**A.** Its value is 226.51 mg/L.

B2: Pho5-tSPF: fusion protein of Pho5 signal peptide at N-terminus of tSPF (SEQ ID NO: 24), expressed in yeast from pSEC-Pho5-tSPF (protein)
chain: MFKSVVYSILAASLANAMEFSGRVGDLSPRQKEALAKFRENVQDVLPALPNPDDYFLLRWLRARSFDLQKSEAMLRKHVEFRKQKDIDNIISWQPPEVIQQYLSGGMCGYDLDGCPVWYDIIGPLDAKGLLFSASKQDLLRTKMRECELLLQECAHQTTKLGRKVETITAIYDCEGLGLKHLWKPAVEAYGEALCMFEENYPETLKRLFVVKAPKLFPVAYNLIKPFLSEDTRKKIMVLGANWKEVLLKHISPDQVPVEYGGTMTDPDGNPKCKSKINYGGDIPRKYYVRDQVK
modifications: Pho5-SPF
**Q.** With B2 as the molecule, how does the “western blot band in cell lysate” value (SQ strain [1]) read?
**A.** The value was “hardly appeared”.

**Q.** And the “amount of extracellular squalene or extracellular squalene secretion ratio compared to the control cells” value (SQ strain [2])?
**A.** The value was “significant increase”.

**Q.** What about the “Intracellular (mg/L)” value (SQ strain [2]; 72 hours) of the same molecule?
**A.** Its value is 252.17 mg/L.

**Q.** And the “Intracellular (mg/g)” value (SQ strain [2]; 72 hours)?
**A.** The value was 51.68 mg/g.

**Q.** What about the “Intracellular (mg/L)” value (SQ strain [2]; 144 hours) of the same molecule?
**A.** The value was 426.85 mg/L.

**Q.** What about the “Intracellular (mg/g)” value (SQ strain [2]; 144 hours) of the same molecule?
**A.** The value was 72.39 mg/g.

**Q.** And the “Extracellular” value (SQ strain [2]; 72 hours)?
**A.** The value was 64.55 mg/L.

**Q.** What about the “Extracellular” value (SQ strain [2]; 144 hours) of the same molecule?
**A.** The value was 190.09 mg/L.

B3: tSPF: truncated supernatant protein factor, amino acids 1 to 275 of SPF (SEQ ID NO: 2), without secretion signal; control expressed from pSEC-tSPF (protein)
chain: MSGRVGDLSPRQKEALAKFRENVQDVLPALPNPDDYFLLRWLRARSFDLQKSEAMLRKHVEFRKQKDIDNIISWQPPEVIQQYLSGGMCGYDLDGCPVWYDIIGPLDAKGLLFSASKQDLLRTKMRECELLLQECAHQTTKLGRKVETITIIYDCEGLGLKHLWKPAVEAYGEFLCMFEENYPETLKRLFVVKAPKLFPVAYNLIKPFLSEDTRKKIMVLGANWKEVLLKHISPDQVPVEYGGTMTDPDGNPKCKSKINYGGDIPRKYYVRDQVK
modifications: truncated SPF
**Q.** How did the “western blot band in cell lysate” value (SQ strain [1]) turn out when B3 was run?
**A.** Its value is “apparent band”.

**Q.** What about the “western blot band in culture supernatant” value (SQ strain [1]; culture supernatant) of the same molecule?
**A.** Its value is “did not appear”.

**Q.** What about the “Intracellular (mg/L)” value (CEN.PK2-1D yeast cells; 144 hours) of the same molecule?
**A.** Its value is 7.04 mg/L.

**Q.** What about the “Intracellular (mg/g)” value (CEN.PK2-1D yeast cells; 144 hours) of the same molecule?
**A.** The value was 0.69 mg/g.

**Q.** What about the “Extracellular” value (CEN.PK2-1D yeast cells; 144 hours) of the same molecule?
**A.** The value was 0.23 mg/L.

**Q.** And the “Intracellular (mg/L)” value (SQ strain [2]; 72 hours)?
**A.** The value was 401.51 mg/L.

**Q.** What about the “Intracellular (mg/g)” value (SQ strain [2]; 72 hours) of the same molecule?
**A.** Its value is 55.05 mg/g.

**Q.** And the “Intracellular (mg/L)” value (SQ strain [2]; 144 hours)?
**A.** Its value is 485.04 mg/L.

**Q.** What about the “Intracellular (mg/g)” value (SQ strain [2]; 144 hours) of the same molecule?
**A.** Its value is 59.43 mg/g.

**Q.** What about the “Extracellular” value (SQ strain [2]; 72 hours) of the same molecule?
**A.** Its value is 3.67 mg/L.

**Q.** What about the “Extracellular” value (SQ strain [2]; 144 hours) of the same molecule?
**A.** The value was 13.82 mg/L.

B4: MFα-tSPF: fusion protein of MFα signal peptide at N-terminus of tSPF (SEQ ID NO: 25), expressed in yeast from pSEC-MFα-tSPF (protein)
chain: MRFPSIFTAVLFAASSALAAPVNTTTEDETAQIPAEAVIGYSDLEGDFDVAVLPFSNSTNNGLLFINTTIASIAAKEEGVSLEKREAEAMEFSGRVGDLSPRQKEALAKFRENVQDVLPALPNPDDYFLLRWLRARSFDLQKSEAMLRKHVEFRKQKDIDNIISWQPPEVIQQYLSGGMCGYDLDGCPVWYDIIGPLDAKGLLFSASKQDLLRTKMRECELLLQECAHQTTKLGRKVETITAIYDCEGLGLKHLWKPAVEAYGEALCMFEENYPETLKRLFVVKAPKLFPVAYNLIKPFLSEDTRKKIMVLGANWKEVLLKHISPDQVPVEYGGTMTDPDGNPKCKSKINYGGDIPRKYYVRDQVK
modifications: MF-tSPF
**Q.** Which results are given for B4?
**A.** amount of extracellular squalene or extracellular squalene secretion ratio compared to the control cells (SQ strain [2]): significant increase; Intracellular (mg/L) (SQ strain [2]; 72 hours): 210.52 mg/L; Intracellular (mg/g) (SQ strain [2]; 72 hours): 44.88 mg/g; Intracellular (mg/L) (SQ strain [2]; 144 hours): 551.64 mg/L; Intracellular (mg/g) (SQ strain [2]; 144 hours): 78.42 mg/g; Extracellular (SQ strain [2]; 72 hours): 4.21 mg/L; Extracellular (SQ strain [2]; 144 hours): 43.25 mg/L
